Like-named read-outs stand apart in the source and are kept apart here.
Columns and labels:
[1] = system: T1, VEGF165 (Homo sapiens), P15692-4; test: filter; settings: 2'-F pyrimidines, 2'-OH purines, 37 C
T1 sequence: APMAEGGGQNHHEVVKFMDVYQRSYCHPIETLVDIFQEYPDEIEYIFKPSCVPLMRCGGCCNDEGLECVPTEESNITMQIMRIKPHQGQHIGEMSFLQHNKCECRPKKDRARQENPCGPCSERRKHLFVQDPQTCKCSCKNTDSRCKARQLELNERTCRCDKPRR

[2] = system: VEGF165 (Homo sapiens), P15692-4; settings: 2'-NH2 pyrimidines, 2'-OMe purines; CITED US 5811533; cited from earlier work

Row | Substance | Kd ([1]; single determination) | Kd [1] | also measured
1 | GGGAGGACGAUGCGGAGAAUCAGUGAAUGCUUAUAAAUCUCGYGUCAGACGACUCGCCCGA [VT30.3] | 0.005 nM |  | 
2 | GGGAGGACGAUGCGGAYCAACCGAUUGACGUUAUGGGACGCUGGUCAGACGACUCGCCCGA [VP30.5] | 0.008 nM |  | 
3 | GGGAGGACGAUGCGGCGGYACUUUGGAAGAAUUGAAUUUCCCGCUCAGACGACUCGCCCGA [VP30.26] | 0.01 nM |  | 
4 | GGGAGGACGAUGCGGUAGGAAGAAUUGGAAGCGCAUUUUCCUCGYCAGACGACUCGCCCGA [VP30.22] |  | 0.02 nM | 
5 | GGGAGGACGAUGCGGYGAACCGAUGGAAUUUUUGGACGCUCGCCUCAGACGACUCGCCCGA [VP30.2] |  | 0.01 nM | 
6 | NX-213 |  |  | Kd [2]: 0.14 nM

Source: patent US6051698
